Source: patent US20160348113, “RNA APTAMERS AGAINST BAFF-R AS CELL-TYPE SPECIFIC DELIVERY AGENTS AND METHODS FOR THEIR USE” (CITY OF HOPE, published 2016)

Columns and labels:
[1] = target: T1, BAFF-R (B-cell activating factor receptor, TNFRSF13C) (Homo sapiens, UniProt Q96RJ3 Q96RJ3:1-76); assay: EMSA; high-salt binding buffer (10 mM HEPES pH 7.4, 150 mM NaCl, 1 mM CaCl2, 1 mM MgCl2, tRNA); about; conditions: tags: ProSpect (Israel), human recombinant; label: 5'-32P or Cy3
T1 sequence: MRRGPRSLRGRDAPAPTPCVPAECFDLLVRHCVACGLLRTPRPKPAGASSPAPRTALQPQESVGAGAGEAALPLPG
Description: (§1) Filter binding assays were used to detect the binding affinity of the individual aptamers. The RNA pool was treated with Calf Intestinal Phoshatase (CIP) to remove the initiating 5′-triphosphate and labeled with γ-³²P-ATP by T4 polynucleotide kinase and the end-labeled RNA pool (10 nM) was incubated with BAFF-R protein (100 nM) and a 10-fold molar excess of nonspecific competitor tRNA (100 nM) in the high-salt RNA binding buffer for 30 min. A 50 μL of binding reaction was separated by a pre-wet nitrocellulose filter. After the filter was washed with 2 mL binding buffer, the radioactivity retained on the filter was counted by a multi-purpose scintillation counter (Beckman Coulter).
(§2) The binding activities of the RNA pools were further confirmed by gel shift assays. Briefly, the BAFF-R protein was serially diluted to the desired concentrations (0˜2560 nM). A constant amount of P³² end-labeled RNA (2 nM) was used. The binding reaction was performed as described above. […] Following electrophoresis the gel was exposed to a Phosphor image screen and the radioactivity was quantified using a Typhoon scanner. The dissociation constants were calculated using non-linear curve regression with a Graph Pad Prism. […] The dissociation constants (Kd) for selected aptamers (R-1, R-2 and R-14) with the target protein were calculated from a native gel mobility shift assay (FIG. 16A).

[2] = target: T1, BAFF-R (B-cell activating factor …); assay: EMSA; parental R-1 in STAT3 chimera comparison; conditions: tags: ProSpect (Israel), human recombinant; label: 5'-32P or Cy3
Description: (§3) The binding activities of the RNA pools were further confirmed by gel shift assays. Briefly, the BAFF-R protein was serially diluted to the desired concentrations (0˜2560 nM). A constant amount of P³² end-labeled RNA (2 nM) was used. The binding reaction was performed as described above. After incubation, 25 μL of binding reaction was loaded into a 5% non-denaturing polyacrylamide gel. Following electrophoresis the gel was exposed to a Phosphor image screen and the radioactivity was quantified using a Typhoon scanner. The dissociation constants were calculated using non-linear curve regression with a Graph Pad Prism. […] The dissociation constants (Kd) for selected aptamers (R-1, R-2 and R-14) with the target protein were calculated from a native gel mobility shift assay (FIG. 16A).
(§4) The binding affinities of the chimeras for BAFF-R protein were assessed by gel shift assay (FIG. 40C and FIG. 49A). […] To determine whether the bound chimera is internalized by BAFF-R expressing cells, real-time Z-axis confocal microscopy was performed (FIG. 41A-C and FIG. 49B). The Cy3-labeled chimeras were successfully internalized into BAFF-R expressing cells (Jeko-1 and Z138) after 5 h post treatment.

[3] = target: T1, BAFF-R (B-cell activating factor …); assay: EMSA; about; UU linker; conditions: tags: ProSpect (Israel), human recombinant; label: 32P
Description: as §3
(§5) Binding affinities were also assessed by flow cytometry (FIG. 28). […] To determine if the bound chimeras were internalized in the BAFF-R expressing cells, out Z-axis confocal microscopy was performed with Jeko-1 cells and CEM control cells incubated with Cy3-labeled transcripts as described above. […] To visualize the nucleus, the cells were stained with the nuclear dye Hoechst 33342 after incubation with Cy3-RNA.

[4] = target: T1, BAFF-R (B-cell activating factor …); assay: EMSA; about; R-22 used as low-affinity negative control; conditions: tags: ProSpect (Israel), human recombinant; label: 32P
Description: as §3, §5

[5] = target: T1, BAFF-R (B-cell activating factor …); assay: EMSA; high-salt binding buffer; about; conditions: tags: ProSpect (Israel), human recombinant; label: 5'-32P or Cy3
Description: as §1, §2

[6] = target: T1, BAFF-R (B-cell activating factor …); assay: EMSA; 8U linker; conditions: tags: ProSpect (Israel), human recombinant; label: 32P
Description: as §3, §4

B1: R-1 aptamer (ssRNA)
RNA: GGGAGGACGAUGCGGGAGGCUCAACAAUGAUAGAGCCCGCAAUGUUGAUAGUUGUGCCCAGUCUGCAGACGACUCGCCCGA
modifications: 2'-F pyrimidines (2'-F-C, 2'-F-U)
Kd [1]: 47 nM
Kd [2]: 54 nM

B2: R-1 D-2 chimera (CCND1 siRNA design 2) (mixed)
RNA 1: GGGAGGACGAUGCGGGAGGCUCAACAAUGAUAGAGCCCGCAAUGUUGAUAGUUGUGCCCAGUCUGCAGACGACUCGCCCGAUUUGUGCCACAGAUGUGAAGUUCAUUUCC
RNA 2: AAAUGAACUUCACAUCUGUGGCACA
modifications: 2'-F pyrimidines in transcribed aptamer-sense strand
Kd [3]: 126 nM

B3: R-22 D-1 chimera (mixed)
RNA 1: GGAGGACGAUGCGGAUCCUCCGAAGGUCGCGCCAACGUCACACAUUAAGCUUUUGUUCGUCUGCAGACGACUCGCCCGAUUCCACAGAUGUGAAGUUCAUUUCCAA
RNA 2: UUGGAAAUGAACUUCACAUCUGUGGCA
modifications: 2'-F pyrimidines in transcribed aptamer-sense strand
Kd [4]: 191 nM

B4: R-14 aptamer (ssRNA)
RNA: GGGAGGACGAUGCGGAUAACUAUUGUGCUAGAGGGCUUAUUUAUGUGAGCCGGUUGAUAGUUGCGCAGACGACUCGCCCGA
modifications: 2'-F pyrimidines (2'-F-C, 2'-F-U)
Kd [5]: 96 nM

B5: R-1-STAT3 27-mer OVH chimera (mixed)
RNA 1: GGGAGGACGAUGCGGGAGGCUCAACAAUGAUAGAGCCCGCAAUGUUGAUAGUUGUGCCCAGUCUGCAGACGACUCGCCCGAUUUUUUUUGAGAACGGAAGCUGCAGAAAGAUACGA
RNA 2: GUAUCUUUCUGCAGCUUCCGUUCUC
modifications: 2'-F pyrimidines in transcribed aptamer strand
Kd [6]: 35 nM

B6: R-1-STAT3 27-mer SWAP chimera (mixed)
RNA 1: GGGAGGACGAUGCGGGAGGCUCAACAAUGAUAGAGCCCGCAAUGUUGAUAGUUGUGCCCAGUCUGCAGACGACUCGCCCGAUUUUUUUUUCAGUCGUAUCUUUCUGCAGCUUCCGU
RNA 2: GGAAGCUGCAGAAAGAUACGACUGA
modifications: 2'-F pyrimidines in transcribed aptamer strand
Kd [6]: 56 nM

B7: R-1 D-1-Mutated chimera (mixed)
RNA 1: GGGAGGACGAUGCGGGAGGCUCAACAAUGAUAGAGCCCGCAAUGUUGAUAGUUGUGCCCAGUCUGCAGACGACUCGCCCGAUUCUCCAGAUUCCAAGCACAUUGUGAA
RNA 2: UUCACAAUGUGCUUGGAAUCUGGAGCA
modifications: 2'-F pyrimidines in transcribed aptamer-sense strand
Kd [3]: 51 nM

B8: R-1 D-1 chimera (CCND1 siRNA design 1) (mixed)
RNA 1: GGGAGGACGAUGCGGGAGGCUCAACAAUGAUAGAGCCCGCAAUGUUGAUAGUUGUGCCCAGUCUGCAGACGACUCGCCCGAUUCCACAGAUGUGAAGUUCAUUUCCAA
RNA 2: UUGGAAAUGAACUUCACAUCUGUGGCA
modifications: 2'-F pyrimidines in transcribed aptamer-sense strand
Kd [3]: 66 nM

B9: R-14 D-2 chimera (mixed)
RNA 1: GGGAGGACGAUGCGGAUAACUAUUGUGCUAGAGGGCUUAUUUAUGUGAGCCGGUUGAUAGUUGCGCAGACGACUCGCCCGAUUUGUGCCACAGAUGUGAAGUUCAUUUCC
RNA 2: AAAUGAACUUCACAUCUGUGGCACA
modifications: 2'-F pyrimidines in transcribed aptamer-sense strand
Kd [3]: 73 nM

B10: R-14 D-1 chimera (mixed)
RNA 1: GGGAGGACGAUGCGGAUAACUAUUGUGCUAGAGGGCUUAUUUAUGUGAGCCGGUUGAUAGUUGCGCAGACGACUCGCCCGAUUCCACAGAUGUGAAGUUCAUUUCCAA
RNA 2: UUGGAAAUGAACUUCACAUCUGUGGCA
modifications: 2'-F pyrimidines in transcribed aptamer-sense strand
Kd [3]: 80 nM
